Measurements: paper PMC8884472 (Molecular cell, 2022)

B1: recombinant PEF1 (natural protein, UniProt Q9UBV8 1-284, looked up)
chain: MASYPYRQGCPGAAGQAPGAPPGSYYPGPPNSGGQYGSGLPPGGGYGGPAPGGPYGPPAGGGPYGHPNPGMFPSGTPGGPYGGAAPGGPYGQPPPSSYGAQQPGLYGQGGAPPNVDPEAYSWFQSVDSDHSGYISMKELKQALVNCNWSSFNDETCLMMINMFDKTKSGRIDVYGFSALWKFIQQWKNLFQQYDRDRSGSISYTELQQALSQMGYNLSPQFTQLLVSRYCPRSANPAMQLDRFIQVCTQLQVLTEAFREKDTAVQGNIRLSFEDFVTMTASRML
B2: recombinant KLHL12^6xHis (natural protein, UniProt Q53G59 1-568, looked up)
chain: MGGIMAPKDIMTNTHAKSILNSMNSLRKSNTLCDVTLRVEQKDFPAHRIVLAACSDYFCAMFTSELSEKGKPYVDIQGLTASTMEILLDFVYTETVHVTVENVQELLPAACLLQLKGVKQACCEFLESQLDPSNCLGIRDFAETHNCVDLMQAAEVFSQKHFPEVVQHEEFILLSQGEVEKLIKCDEIQVDSEEPVFEAVINWVKHAKKEREESLPNLLQYVRMPLLTPRYITDVIDAEPFIRCSLQCRDLVDEAKKFHLRPELRSQMQGPRTRARLGANEVLLVVGGFGSQQSPIDVVEKYDPKTQEWSFLPSITRKRRYVASVSLHDRIYVIGGYDGRSRLSSVECLDYTADEDGVWYSVAPMNVRRGLAGATTLGDMIYVSGGFDGSRRHTSMERYDPNIDQWSMLGDMQTAREGAGLVVASGVIYCLGGYDGLNILNSVEKYDPHTGHWTNVTPMATKRSGAGVALLNDHIYVVGGFDGTAHLSSVEAYNIRTDSWTTVTSMTTPRCYVGATVLRGRLYAIAGYDGNSLLSSIECYDPIIDSWEVVTSMGTQRCDAGVCVLREK

Assays:
recombinant KLHL12^6xHis = target: B2; assay: pull-down
recombinant CUL3/RBX1 = recombinant CUL3/RBX1 (UniProt Q13618 1-768; P62877 1-108); assay: pull-down
Sequence of recombinant CUL3/RBX1 (Q13618 whole entry, chain 1 of 2): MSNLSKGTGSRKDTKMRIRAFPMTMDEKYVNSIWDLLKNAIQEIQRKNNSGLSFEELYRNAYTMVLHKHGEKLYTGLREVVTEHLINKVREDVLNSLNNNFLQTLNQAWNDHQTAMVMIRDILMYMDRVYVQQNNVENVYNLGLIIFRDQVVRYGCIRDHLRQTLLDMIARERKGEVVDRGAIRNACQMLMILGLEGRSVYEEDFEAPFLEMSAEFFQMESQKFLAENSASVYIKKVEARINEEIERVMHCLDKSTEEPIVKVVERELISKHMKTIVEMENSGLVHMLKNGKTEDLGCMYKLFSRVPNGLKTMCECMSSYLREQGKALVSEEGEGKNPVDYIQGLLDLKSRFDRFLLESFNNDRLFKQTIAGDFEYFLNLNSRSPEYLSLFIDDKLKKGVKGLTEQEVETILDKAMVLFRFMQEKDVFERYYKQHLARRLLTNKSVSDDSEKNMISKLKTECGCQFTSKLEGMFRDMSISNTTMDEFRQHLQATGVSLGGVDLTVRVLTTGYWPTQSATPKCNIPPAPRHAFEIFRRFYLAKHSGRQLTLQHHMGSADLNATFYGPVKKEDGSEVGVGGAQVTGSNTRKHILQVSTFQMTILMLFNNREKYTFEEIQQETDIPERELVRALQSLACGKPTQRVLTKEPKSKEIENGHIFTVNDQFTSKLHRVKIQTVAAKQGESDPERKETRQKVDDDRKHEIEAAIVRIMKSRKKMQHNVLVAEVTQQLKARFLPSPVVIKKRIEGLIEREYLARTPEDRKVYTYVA
Sequence of recombinant CUL3/RBX1 (P62877 whole entry, chain 2 of 2): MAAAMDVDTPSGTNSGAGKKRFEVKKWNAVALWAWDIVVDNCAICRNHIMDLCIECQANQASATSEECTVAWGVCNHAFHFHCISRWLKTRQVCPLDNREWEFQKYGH

Binder | binding result (recombinant KLHL12^6xHis) | binding result (recombinant CUL3/RBX1)
B1 | binds | 
B2 |  | binds
